From patent US20130143822A1, “AGENTS FOR TREATING ALZHEIMER'S DISEASE” (priority 2010, published 2013) come the findings set out here.

One assay addresses Aβ1-42 oligomers (Homo sapiens, UniProt P05067). Put plainly: Surface plasmon resonance, Aβ1-42 monomers, oligomers and fibrils immobilized on a CM5 biosensor chip. It is filed as binding. The procedure: L3 is shown in section A and D3 is shown in section B of the figure. […] Aβ1-42 monomers (dashed lines), oligomers (solid lines) and fibrils (dotted line) were immobilized on a CM5 biosensor chip. Interaction analyses were carried out by means of surface […]. RU: resonance units. In each case, 25 μl peptide solution (100 μg/ml) was injected. […] The same results are also obtained for Aβ1-40 oligomers.
For orientation: Surface plasmon resonance follows binding to a sensor surface in real time, without labels.

Assay [1] addresses T1, Aβ (Homo sapiens, UniProt P05067).
T1 construct: joint stock solutions made of 25 μM Aβ (light bars) and 25 μM Aβ with 1 mM L3
Put plainly: Seeding test: amyloidogenic properties of Aβ-L3 aggregates by ThT fluorescence over time. It is filed as biochemical. The conditions noted are these: seeds 20% v/v added to freshly prepared Aβ, compared with Aβ without seeds. The procedure:
Amyloidogenic seeds are particles which act as “nuclei” and expedite the aggregation process. With regard to the aggregation of Aβ, it is known that existing Aβ oligomers/seeds considerably expedite the aggregation process of monomers. For the experiment, seeds were produced which consisted of Aβ (triangles) and such, which consisted of Aβ and L3 (squares). After incubating Aβ and A-L3 mixtures for 5 days, the seeds were centrifuged off and washed. The seeds (20% v/v) were added to freshly prepared Aβ in the ThT test. Aβ without seeds (rhombi) were measured for control purposes. […] This is an indication that Aβ-D3 aggregates no longer have amyloid structures.

For assay [2], the target named is T1, Aβ. As to the kind of experiment: Thioflavin T test of Aβ aggregation. It is filed as biochemical. Particulars: 25 μM Aβ with 1 mM L3. On the procedure:
(§1) Both tests were prepared from joint stock solutions made of 25 μM Aβ (light bars) and 25 μM Aβ with 1 mM L3 (dark bars). In the ThT test, 5 μl of the solutions was mixed with 200 μl ThT solution (5 μM ThT; 50 mM glycerin pH 8.5) and measured at λex 440 nm and λem=490 nm in the fluorescence spectrometer. ThT is a dye which, when bound to regular fibrils, has higher fluorescence and therefore serves as a measure of the fibrillation. In the turbidimetric test, the clouding of the solution was measured in the UV/VIS spectrometer as a measure of the aggregation as absorption at 355 nm.

For assay [3], the target named is Aβ1-42 oligomeric particles (Homo sapiens, UniProt P05067). As to the kind of experiment: Dynamic light scattering, hydrodynamic radius of Aβ1-42 particles. The conditions noted are these: 5 μM Aβ1-42 oligomeric particles, 50 μM L3, immediately and after 20 minutes, 25° C. The class given is biochemical. On the procedure: Dynamic light scattering is used to determine the hydrodynamic radius of particles in solution or suspension. A 5 μM sample of Aβ1-42 oligomeric particles was diluted by adding a 50 μM L3 sample on the one hand, and buffer (50 mM sodium phosphate, 100 mM NaCl, pH 7.4) on the other hand. The hydrodynamic radius of the Aβ1-42 particles with and without L3 was measured using a DynaPro light scattering system, immediately after the sample was prepared and after 20 minutes. A 655.6 nm laser (13 mW/58% laser intensity) was used. The measuring time was 2 seconds, and the measurement temperature was 25° C. Spherical sedimented particles were assumed for calculating the hydrodynamic radius.

In a further assay the target is Aβ1-42 (Homo sapiens, UniProt P05067). As to the kind of experiment: Density gradient centrifugation (iodixanol gradient 5-50%) of Aβ-peptide mixtures, SDS-PAGE and silver staining. It is filed as biochemical. The conditions noted are these: 125 μM Aβ and 125 mM peptide. The procedure: L3 precipitates Aβ oligomers from complex mixtures of different Aβ forms. The size distributions of Aβ in solution and in Aβ-peptide mixtures were examined by way of sedimentation analysis on an iodixanol gradient (5-50%). The mixtures contained 125 μM Aβ and 125 mM peptide, respectively. After centrifugation, 14 fractions of 140 μl each were obtained from the surface by sequential pipetting and analyzed by means of denatured polyacrylamide gel electrophoresis SDS-PAGE and subsequent silver staining. […] Large aggregates form, which in subsequent experiments are described as amorphous, not fibrillary and not amyloidogenic.

The target of assay [4] is T1, Aβ. Put plainly: Turbidimetric test of Aβ aggregation (absorption at 355 nm). It is filed as biochemical. Particulars: 25 μM Aβ with 1 mM L3. The procedure: as §1
Where [5] appears, read: SPR, 25 μl peptide solution (100 μg/ml) injected.

Aβ1-42 oligomers, sequence (P05067 672-713 limits assumed): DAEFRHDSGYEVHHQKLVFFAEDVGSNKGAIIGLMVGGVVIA
T1 sequence (P05067 672-713 limits assumed): as above
Aβ1-42, sequence (P05067 672-713 limits assumed): as above
Aβ1-42 oligomeric particles, sequence (P05067 672-713 limits assumed): as above

For “L3: L3 peptide, which according to the invention binds to Aβ oligomers (LRMMLQIKRIPR)”, in the assay with Aβ1-42 oligomers (setting [5]), the “binding to Aβ1-42 oligomers” value is recorded as “very clear binding” and the “maximum resonance (RU) compared with D3” value is “higher maximum resonance than D3”. Moreover, in the assay with Aβ1-42 oligomers (SPR, FIG. 1), the “binding strength compared with D3” value is given as “stronger binding than D3”. Moreover, the “binding to the Aβ peptide compared with peptide D3” value with Aβ1-42 oligomers (general statement) was “better binding”. The “acceleration of Aβ aggregation by seeds composed of Aβ and L3” value in the assay with Aβ [1] is reported as “do not result in any accelerated aggregation”. Also, the “ThT test result of the Aβ aggregates (fibrillary structure)” value in the assay with Aβ [2] is recorded as “negative”. For the same substance, the “formation of large Aβ aggregates (hydrodynamic radius)” value in assay [3] is “favorable in terms of the fast formation of large Aβ aggregates”. The “content of Aβ oligomers after density gradient centrifugation” value with Aβ1-42 is “significantly reduce”. Besides, the “reduction of Aβ oligomer content compared with D3” value in the assay with Aβ1-42 (at the analyzed time) was “to a greater degree than D3”. Besides, the “development of Aβ aggregates (clouding)” value with Aβ [4] is “fast development of large Aβ aggregates”.
